Laboratory results published in US20210380640A1.
Read-outs that look alike come from different tables or passages of the source. Values belong to the substance of their own block, whether it stands above or below them.

Assays:
[1] = target: SARS-CoV-2 spike protein (SARS-CoV-2) (UniProt P0DTC2)
[2] = target: SARS-CoV-2 spike protein (SARS-CoV-2) (UniProt P0DTC2); remark: listed apart in the source
[3] = target: full-length recombinant MrkA protein with an N-terminal 6xHis-SUMO-tag (MyBiosource, MBS1248970) (Klebsiella pneumoniae) (UniProt P12267); assay: sandwich ELISA 3, PCC immobilised, MrkA 50 nM; reference cy(LLFFF)
[4] = target: full-length recombinant MrkA protein with an N-terminal 6xHis-SUMO-tag (MyBiosource, MBS1248970) (Klebsiella pneumoniae) (UniProt P12267); assay: sandwich ELISA 2, PCC immobilised, MrkA 25 nM; reference cy(LLFFF)
[5] = target: full-length recombinant MrkA protein with an N-terminal 6xHis-SUMO-tag (MyBiosource, MBS1248970) (Klebsiella pneumoniae) (UniProt P12267); assay: sandwich ELISA 6, PCC immobilised, MrkA 25 nM; reference cy(LLFFF)
[6] = target: full-length recombinant MrkA protein with an N-terminal 6xHis-SUMO-tag (MyBiosource, MBS1248970) (Klebsiella pneumoniae) (UniProt P12267); assay: sandwich ELISA 5, PCC immobilised, MrkA 25 nM; reference cy(LLFFF)
[7] = target: full-length recombinant MrkA protein with an N-terminal 6xHis-SUMO-tag (MyBiosource, MBS1248970) (Klebsiella pneumoniae) (UniProt P12267); assay: ELISA, PCC immobilised, full-length recombinant MrkA
[8] = target: full-length recombinant MrkA protein with an N-terminal 6xHis-SUMO-tag (MyBiosource, MBS1248970) (Klebsiella pneumoniae) (UniProt P12267); assay: sandwich ELISA 1, PCC immobilised, [MrkA] N/A; the reference itself
[9] = target: full-length recombinant MrkA protein with an N-terminal 6xHis-SUMO-tag (MyBiosource, MBS1248970) (Klebsiella pneumoniae) (UniProt P12267); assay: sandwich ELISA 2, PCC immobilised, MrkA 25 nM; the reference itself
[10] = target: full-length recombinant MrkA protein with an N-terminal 6xHis-SUMO-tag (MyBiosource, MBS1248970) (Klebsiella pneumoniae) (UniProt P12267); assay: sandwich ELISA 3, PCC immobilised, MrkA 50 nM; the reference itself
[11] = target: full-length recombinant MrkA protein with an N-terminal 6xHis-SUMO-tag (MyBiosource, MBS1248970) (Klebsiella pneumoniae) (UniProt P12267); assay: sandwich ELISA 5, PCC immobilised, MrkA 25 nM; the reference itself
[12] = target: full-length recombinant MrkA protein with an N-terminal 6xHis-SUMO-tag (MyBiosource, MBS1248970) (Klebsiella pneumoniae) (UniProt P12267); assay: sandwich ELISA 6, PCC immobilised, MrkA 25 nM; the reference itself
[13] = target: full-length recombinant MrkA protein with an N-terminal 6xHis-SUMO-tag (MyBiosource, MBS1248970) (Klebsiella pneumoniae) (UniProt P12267); assay: sandwich ELISA 4, PCC immobilised, MrkA 100 nM; the reference itself
[14] = target: full-length recombinant MrkA protein with an N-terminal 6xHis-SUMO-tag (MyBiosource, MBS1248970) (Klebsiella pneumoniae) (UniProt P12267); assay: sandwich ELISA, biotinylated PCC immobilised, His-SUMO-MrkA titrated (FIG. 3A)
[15] = target: full-length recombinant MrkA protein with an N-terminal 6xHis-SUMO-tag (MyBiosource, MBS1248970) (Klebsiella pneumoniae) (UniProt P12267); assay: sandwich ELISA 4, PCC immobilised, MrkA 100 nM; reference cy(LLFFF)

EC50 [1]: 4.2 nM
Substance: G1Gld (peptide)

EC50 [1]: 3.4 nM
Substance: GGarn (peptide)

EC50 [2]: 16.4 nM
Substance: aakrG (peptide)

EC50 [1]: 4.2 nM
Substance: andkd (peptide)

EC50 [2]: 4.3 nM
Substance: edlvk (peptide)

EC50 [2]: 11 nM
Substance: eprnn (peptide)

EC50 [2]: 4.4 nM
Substance: nkvyG (peptide)

EC50 [2]: 3.2 nM
Substance: skdfd (peptide)

EC50 [2]: 4.6 nM
Substance: skevd (peptide)

EC50 [1]: 3.1 nM
Substance: tGarn (peptide)

EC50 [2]: 3.6 nM
Substance: tsthG (peptide)

EC50 [1]: 4.2 nM
Substance: ydrsd (peptide)

EC50 [2]: 4 nM
Substance: ykdld (peptide)

Continued, substance first:

Substance: avtr (peptide)
EC50 [2]: 3.4 nM

Substance: cy(AAFFF) (peptide)
Relative affinity (ratio of ELISA signal to cy(LLFFF)) [3]: 0.15

Substance: cy(ALFFF) (peptide)
Relative affinity (ratio of ELISA signal to cy(LLFFF)) [4]: 0.53

Substance: cy(DLFFF) (peptide)
Relative affinity (ratio of ELISA signal to cy(LLFFF)) [5]: 0.21

Substance: cy(HLFFF) (peptide)
Relative affinity (ratio of ELISA signal to cy(LLFFF)) [5]: 0.81

Substance: cy(LAFFF) (peptide)
Relative affinity (ratio of ELISA signal to cy(LLFFF)) [4]: 0.26

Substance: cy(LLAFF) (peptide)
Relative affinity (ratio of ELISA signal to cy(LLFFF)) [4]: 0.59

Substance: cy(LLFAF) (peptide)
Relative affinity (ratio of ELISA signal to cy(LLFFF)) [4]: 0.1

Substance: cy(LLFFA) (peptide)
Relative affinity (ratio of ELISA signal to cy(LLFFF)) [4]: 0.04

Substance: cy(LLFFF)+R3 (peptide)
Relative affinity (ratio of ELISA signal to cy(LLFFF)) [6]: 0.9

Substance: cy(LLFFF)+R6 (peptide)
Relative affinity (ratio of ELISA signal to cy(LLFFF)) [6]: 1.22

Substance: cy(LLFFF)+R9 (peptide)
Relative affinity (ratio of ELISA signal to cy(LLFFF)) [6]: 0.58

Substance: cy(LLFFF), biotinylated (peptide)
EC50 [7]: 230 nM | Relative affinity (ratio of ELISA signal to cy(LLFFF)) [8]: 1 | Relative affinity (ratio of ELISA signal to cy(LLFFF)) [9]: 1 | Relative affinity (ratio of ELISA signal to cy(LLFFF)) [10]: 1 | Relative affinity (ratio of ELISA signal to cy(LLFFF)) [11]: 1 | Relative affinity (ratio of ELISA signal to cy(LLFFF)) [12]: 1 | Relative affinity (ratio of ELISA signal to cy(LLFFF)) [13]: 1 | EC50 [14]: 50 nM

Substance: cy(TTFFF) (peptide)
Relative affinity (ratio of ELISA signal to cy(LLFFF)) [15]: 0.04

Substance: dpvtd (peptide)
EC50 [1]: 4.1 nM

Substance: dyGvd (peptide)
EC50 [2]: 2.9 nM

Substance: dynGp (peptide)
EC50 [2]: 2.9 nM

Substance: fdtta (peptide)
EC50 [2]: 3.2 nM

Substance: nnpdh (peptide)
EC50 [1]: 3.8 nM

Substance: sdyre (peptide)
EC50 [1]: 4.2 nM

Substance: senfd (peptide)
EC50 [2]: 3.8 nM
